One block for each substance: values may come before it.
Experiments:
Test in all cases: cell-based or functional assay
CytERm-mScarlet3 = target: CytERm-mScarlet3
CytERm-mScarlet-I3 = target: CytERm-mScarlet-I3
Cyterm fusion: dTomato = target: Cyterm fusion: dTomato
Cyterm fusion: mEGFP = target: Cyterm fusion: mEGFP
Cyterm-TagRFP-T = target: Cyterm-TagRFP-T
Cyterm-mCherry = target: Cyterm-mCherry
Cyterm-mScarlet = target: Cyterm-mScarlet
Cyterm-mScarlet-I = target: Cyterm-mScarlet-I

Substance: CytERm-mScarlet3
- % cells with OSER (CytERm-mScarlet3): 7%

Substance: Cyterm fusion: dTomato
- % cells with OSER (Cyterm fusion: dTomato): 82%

Substance: Cyterm-TagRFP-T
- % cells with OSER (Cyterm-TagRFP-T): 64%

Substance: Cyterm-mScarlet
- % cells with OSER (Cyterm-mScarlet): 8%

Substance: Cyterm-mScarlet-I
- % cells with OSER (Cyterm-mScarlet-I): 8%

Further lines, results first:

- % cells with OSER (CytERm-mScarlet-I3): 5%
Substance: CytERm-mScarlet-I3

- % cells with OSER (Cyterm fusion: mEGFP): 11%
Substance: Cyterm fusion: mEGFP

- % cells with OSER (Cyterm-mCherry): 18%
Substance: Cyterm-mCherry
